Measurements: paper PMC10125973, “A small secreted protein NICOL regulates lumicrine-mediated sperm maturation and male fertility” (Nature Communications, 2023)

Target: T1, neural epidermal growth factor-like like 2 (NELL2), C-terminally 6xHis-tagged recombinant (UniProt Q61220 25-819)
T1 construct: NELL2, secreted protein; also called purified recombinant NELL2; source: human 293-F cells, transiently expressed, purified from conditioned medium (ammonium sulphate, Ni-NTA, PD-10)
T1 sequence (looked up): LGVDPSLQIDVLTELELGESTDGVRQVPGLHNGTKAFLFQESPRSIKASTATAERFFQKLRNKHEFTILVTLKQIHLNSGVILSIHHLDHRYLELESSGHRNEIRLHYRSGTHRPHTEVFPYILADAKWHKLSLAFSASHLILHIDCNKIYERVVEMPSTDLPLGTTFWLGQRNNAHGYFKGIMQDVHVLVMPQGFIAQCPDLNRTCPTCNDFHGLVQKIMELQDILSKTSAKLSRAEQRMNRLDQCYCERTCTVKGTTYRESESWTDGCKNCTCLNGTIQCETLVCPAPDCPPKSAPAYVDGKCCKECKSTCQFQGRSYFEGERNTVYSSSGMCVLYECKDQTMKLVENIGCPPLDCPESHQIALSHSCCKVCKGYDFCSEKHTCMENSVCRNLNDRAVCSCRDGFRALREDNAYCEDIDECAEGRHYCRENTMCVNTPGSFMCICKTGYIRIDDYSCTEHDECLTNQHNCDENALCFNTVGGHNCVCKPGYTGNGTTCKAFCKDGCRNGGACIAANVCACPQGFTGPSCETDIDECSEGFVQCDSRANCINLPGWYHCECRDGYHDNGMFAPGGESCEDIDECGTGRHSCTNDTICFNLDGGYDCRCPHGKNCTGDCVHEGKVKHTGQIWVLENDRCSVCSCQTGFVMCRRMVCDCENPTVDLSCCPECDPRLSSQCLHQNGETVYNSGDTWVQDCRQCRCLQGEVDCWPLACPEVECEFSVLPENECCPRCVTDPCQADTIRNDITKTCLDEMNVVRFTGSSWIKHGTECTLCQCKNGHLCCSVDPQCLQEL
Experiment: SPR; purified NELL2 immobilised on series S sensor chip CM5; purified NICOL in PBS as analyte; Biacore T200
Details: both partners purified

B1: NELL2-interacting cofactor for lumicrine signalling (NICOL), 6xHis-tagged recombinant (natural protein, mouse, UniProt Q3UR78 29-90, looked up)
chain: EPATGSAVPAQSRPCVDCHAFEFMQRALQDLRKTAYSLDARTETLLLQAERRALCACWPAGR
notes: mouse NICOL (predicted gene Gm1673, ortholog of human C4orf48), small secreted protein; cDNA encoding mouse NICOL followed by 6xHis; purified from conditioned medium, so without its signal peptide; also called purified recombinant NICOL protein; source: human 293-F cells, transiently expressed, purified from conditioned medium (ammonium sulphate, Ni-NTA, PD-10)
For B1, which Kd is on record?
The Kd was 87 nM.

And the koff?
Its koff is 0.0062 s⁻¹.

And the kon?
The kon was 72000 M⁻¹ s⁻¹.
